These results are taken from article PMC5114395.

The target of the experiment is Ku heterodimer (Ku70 and Ku80) (UniProt P12956).
Sequence of UniProt P12956 (P12956 whole entry, chain 1 of 2): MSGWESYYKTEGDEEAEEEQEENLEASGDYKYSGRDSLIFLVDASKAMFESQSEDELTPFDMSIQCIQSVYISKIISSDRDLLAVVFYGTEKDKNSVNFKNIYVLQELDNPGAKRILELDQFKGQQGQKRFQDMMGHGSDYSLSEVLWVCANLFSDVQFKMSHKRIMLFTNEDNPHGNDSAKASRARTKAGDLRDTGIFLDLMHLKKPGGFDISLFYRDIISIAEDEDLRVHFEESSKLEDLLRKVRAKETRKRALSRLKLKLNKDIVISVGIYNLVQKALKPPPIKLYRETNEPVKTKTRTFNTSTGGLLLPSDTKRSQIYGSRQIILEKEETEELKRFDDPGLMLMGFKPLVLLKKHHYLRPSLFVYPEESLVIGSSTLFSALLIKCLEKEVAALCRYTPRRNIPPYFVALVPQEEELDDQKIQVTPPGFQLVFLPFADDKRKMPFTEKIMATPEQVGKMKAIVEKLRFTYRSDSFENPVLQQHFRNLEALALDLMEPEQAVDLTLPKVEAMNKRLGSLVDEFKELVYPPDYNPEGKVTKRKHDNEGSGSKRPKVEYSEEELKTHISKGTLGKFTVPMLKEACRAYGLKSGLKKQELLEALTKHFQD
Sequence of UniProt P12956 (P13010 whole entry, chain 2 of 2, further chain): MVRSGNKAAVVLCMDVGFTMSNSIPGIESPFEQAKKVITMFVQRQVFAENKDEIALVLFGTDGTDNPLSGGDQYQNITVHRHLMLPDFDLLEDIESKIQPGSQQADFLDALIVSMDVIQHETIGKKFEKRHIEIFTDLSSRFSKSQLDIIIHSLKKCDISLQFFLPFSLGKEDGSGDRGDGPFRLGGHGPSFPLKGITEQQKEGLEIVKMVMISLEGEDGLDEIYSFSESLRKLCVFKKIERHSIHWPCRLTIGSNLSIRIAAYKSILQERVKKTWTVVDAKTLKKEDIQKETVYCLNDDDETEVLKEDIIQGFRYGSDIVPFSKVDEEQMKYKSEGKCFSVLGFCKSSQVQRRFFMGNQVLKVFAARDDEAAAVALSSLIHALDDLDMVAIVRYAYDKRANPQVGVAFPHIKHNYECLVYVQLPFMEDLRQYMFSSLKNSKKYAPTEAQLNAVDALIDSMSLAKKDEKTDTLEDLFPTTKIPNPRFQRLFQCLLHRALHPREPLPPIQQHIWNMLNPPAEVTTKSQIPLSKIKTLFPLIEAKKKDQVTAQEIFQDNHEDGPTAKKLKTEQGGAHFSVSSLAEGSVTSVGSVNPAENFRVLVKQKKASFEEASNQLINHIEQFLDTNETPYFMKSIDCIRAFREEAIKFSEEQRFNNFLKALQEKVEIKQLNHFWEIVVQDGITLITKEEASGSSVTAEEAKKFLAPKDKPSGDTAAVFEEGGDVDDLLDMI

In turn, “PAXX (paralog of XRCC4 and XLF) (from UniProt Q9BUH6 1-204) (natural protein)” came in with an NHEJ efficiency of blunt-ended DNA with Ku, DNA-PKcs, Artemis, X4·LIV and Pol μ, without or with 500 nM PAXX (Fig. 7B, lanes 12–15) of 2 fold.
